# Primed or numbered codes have the meaning given here. Biotin′ = not defined here
# T1: LRRC25(21-40) biotin peptide (human, not fully specified; N-terminal NH2; C-terminal GGK-Biotin; native Cys changed to Ser)
# T1 peptide: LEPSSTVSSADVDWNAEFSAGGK
# T2: LRRC25(36-55) biotin peptide (human, not fully specified; N-terminal NH2; C-terminal GGK-Biotin; native Cys changed to Ser)
# T2 peptide: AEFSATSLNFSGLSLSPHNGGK
# T3: LRRC25(51-69) biotin peptide (human, not fully specified; N-terminal acetyl; C-terminal GGK-Biotin)
# T3 peptide: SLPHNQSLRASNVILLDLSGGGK
# T4: LRRC25(66-85) biotin peptide (human, not fully specified; N-terminal acetyl; C-terminal GGK-Biotin)
# T4 peptide: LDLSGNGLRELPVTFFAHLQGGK
# T5: LRRC25(81-100) biotin peptide (human, not fully specified; N-terminal acetyl; C-terminal GGK-Biotin)
# T5 peptide: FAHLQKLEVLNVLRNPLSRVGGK
# T6: LRRC25(96-115) biotin peptide (human, not fully specified; N-terminal acetyl; C-terminal GGK-Biotin; native Cys changed to Ser)
# T6 construct: also called Biotin LRRC25 (96-115) peptide
# T6 peptide: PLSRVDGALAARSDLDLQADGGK
# T7: LRRC25(111-130) biotin peptide (human, not fully specified; N-terminal acetyl; C-terminal GGK-Biotin; native Cys changed to Ser)
# T7 peptide: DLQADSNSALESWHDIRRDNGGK
# T8: LRRC25(126-145) biotin peptide (human, not fully specified; N-terminal acetyl; C-terminal GGK-Biotin; native Cys changed to Ser)
# T8 peptide: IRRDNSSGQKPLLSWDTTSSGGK
# T9: LRRC25(141-159) biotin peptide (human, not fully specified; N-terminal acetyl; C-terminal GGK-Biotin; native Cys changed to Ser)
# T9 peptide: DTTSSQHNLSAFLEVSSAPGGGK
# T10: LRRC25(150-165) biotin peptide (human)
# T10 peptide: Ac-SAFLEVSSAPGLASATGG-{Biotin′}
# Experiments:
# [1] = target: T1, LRRC25(21-40) biotin peptide; assay: peptide ELISA
# Experimental: (§1) To establish if functional chimera anti-LRRC25 antibodies recognize particular regions of LRRC25, ELISA experiments were performed using 10 plate-immobilized 16- to 20-mer overlapping LRRC25(ECD) biotin peptides (Table 7). Biotinylated human LRRC25-His served as a positive control. A typical ELISA was performed by coating overnight at 4° C., 3 ug/mL/25 ul per well of streptavidin (Jackson Immunoresearch, Cat. #016-030-084) in PBS in half-area high binding microtiter wells (Corning Cat. #3690). […] Biotin peptides or biotinylated human LRRC25-His protein were added in duplicate (2 ug/mL/25 ul per well) in assay buffer (blocking buffer containing 0.05% tween 20) and the plate incubated for 45 min at 37° C. The plate was washed as before, 20 nM anti-LRRC25 antibodies in assay buffer added in duplicate into appropriate wells, and the plate incubated as before. The plate was washed and HRP-conjugated secondary antibody in assay buffer added [25 ul per well; goat anti-human IgG (Jackson Immunoresearch, Cat. #715-035-150)], and incubated as before. Antibody bound to plate-immobilized peptide(s) or protein was determined at A450 nm using HRP substrate (3,3′,5,5′-tetramethylbenzidine (TMB); eBioscience; Cat. #00-4201-56); 100 μl/well).
# [2] = target: T2, LRRC25(36-55) biotin peptide; assay: peptide ELISA
# Experimental: as §1
# [3] = target: T3, LRRC25(51-69) biotin peptide; assay: peptide ELISA
# Experimental: as §1
# [4] = target: T4, LRRC25(66-85) biotin peptide; assay: peptide ELISA
# Experimental: as §1
# [5] = target: T5, LRRC25(81-100) biotin peptide; assay: peptide ELISA
# Experimental: as §1
# [6] = target: T6, LRRC25(96-115) biotin peptide; assay: peptide ELISA
# Experimental: as §1
# [7] = target: T7, LRRC25(111-130) biotin peptide; assay: peptide ELISA
# Experimental: as §1
# [8] = target: T8, LRRC25(126-145) biotin peptide; assay: peptide ELISA
# Experimental: as §1
# [9] = target: T9, LRRC25(141-159) biotin peptide; assay: peptide ELISA
# Experimental: as §1
# [10] = target: T10, LRRC25(150-165) biotin peptide; assay: peptide ELISA
# Experimental: as §1
# [11] = target: T11, His-tagged human LRRC25 extracellular domain protein, human LRRC25-His (human, UniProt Q8N386 21-165); assay: ELISA, plate-immobilized antigen
# T11 construct: The entry holds the extracellular domain, a GSG linker and the His tag; also called LRRC25(ECD)-HIS
# T11 sequence (Q8N386 other isoform, or with tags, fused parts or gaps): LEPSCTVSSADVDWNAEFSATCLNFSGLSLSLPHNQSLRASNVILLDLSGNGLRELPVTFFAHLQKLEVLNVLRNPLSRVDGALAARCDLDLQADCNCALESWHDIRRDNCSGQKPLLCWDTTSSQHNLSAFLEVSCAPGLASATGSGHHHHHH
# Experimental: To establish the relative binding strengths of anti-LRRC25 antibodies against human LRRC25, and their cross-reactivity with cynomolgus monkey LRRC25, antibody binding curve analyses were performed and EC50 values against plate-immobilized recombinant human and cyno LRRC25 proteins were determined.
# (§2) A typical ELISA was performed by coating overnight in PBS, pH 7.4, at 4° C. in high binding microtiter wells with 1 ug/mL/100 ul per well of human LRRC25-His or cyno LRRC25-His. An anti-human LRRC25 antibody (2A3, LS Bio, LS-C174039-100) and anti-HIS-HRP (Miltenyi Biotec; 130-092-783) served as coating controls for the human and cyno LRRC25 proteins, respectively. […] Anti-LRRC25 antibodies were added (100 ul per well) at 500 nM and serially diluted 3-fold in assay buffer (1% skimmed milk in PBS, pH 7.4). The plate was incubated with gentle agitation for 1 h at room temperature. The plate was washed 3× and HRP-conjugated secondary antibody in assay buffer added [100 ul per well; goat anti-human IgG (Jackson Immunoresearch, cat #715-035-150)], and the plate was incubated as before. Antibody bound to plate-immobilized LRRC25(ECD)-HIS was determined at A450 nm using HRP substrate (3,3′,5,5′-tetramethylbenzidine (TMB); eBioscience; 00-4201-56); 100 μl/well).
# [12] = target: T12, His-tagged cynomolgus monkey LRRC25 extracellular domain protein, cyno LRRC25-His (cynomolgus monkey); assay: ELISA, plate-immobilized cyno LRRC25-His
# T12 construct: The entry holds the extracellular domain, a GSG linker and the His tag
# T12 sequence (chain, as listed by the source limits assumed): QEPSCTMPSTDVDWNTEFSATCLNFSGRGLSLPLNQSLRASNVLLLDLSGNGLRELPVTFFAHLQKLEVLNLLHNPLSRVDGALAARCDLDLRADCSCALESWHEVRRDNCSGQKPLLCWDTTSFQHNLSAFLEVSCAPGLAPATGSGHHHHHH
# Experimental: as §2
# [13] = target: T13, biotinylated human LRRC25-His protein (human, UniProt Q8N386 21-165, biotinylated (sites not given)); assay: ELISA, 20 nM antibody, biotinylated antigen on streptavidin plate
# T13 construct: also called Biotin LRRC25-His; biotinylated LRRC25 protein
# T13 sequence (Q8N386 other isoform, or with tags, fused parts or gaps): as the sequence (Q8N386 other isoform, or with tags, fused parts or gaps) above
# Experimental: as §1
# [14] = target: T6, LRRC25(96-115) biotin peptide; assay: as above
# Experimental: as §1
binding result [1],binding result [2],binding result [3],binding result [4],binding result [5],binding result [6],binding result [7],binding result [8],binding result [9],binding result [10],EC50 [11] [nM],binding result [12],absorbance (A450) [13] [A450],absorbance (A450) [14] [A450],Binder
no binding (tested: 20 nM),no binding (tested: 20 nM),no binding (tested: 20 nM),no binding (tested: 20 nM),no binding (tested: 20 nM),no binding (tested: 20 nM),no binding (tested: 20 nM),no binding (tested: 20 nM),no binding (tested: 20 nM),no binding (tested: 20 nM),45.1,no binding (tested: 500 nM),0.341,0.11,"anti-LRRC25 chimeric antibody 3E01 (antibody, human IgG4, V domains shown) VH: EEKLEESGGGLVKPGGSLKLSCAVSGFTLSSYAMSWVRQTPEKRLEWVASISRGGNTYYPDSVKGRFTISRDNGRNILNLQMSSLRSEDTAIYYCTRGGGSTMITSLFAYWGQGTLVTVSA VL: DIVMTQAAFSNPVTLGTSASIFCRSSKSLLHSNGITYLYWYLQKPGQSPQLLIYQMSNLASGVPDRFSSSGSGTDFTLRISRVEAEDVGVYYCAQNLELPYTFGGGTKLEIKR"
no binding (tested: 20 nM),no binding (tested: 20 nM),no binding (tested: 20 nM),no binding (tested: 20 nM),no binding (tested: 20 nM),no binding (tested: 20 nM),no binding (tested: 20 nM),no binding (tested: 20 nM),no binding (tested: 20 nM),no binding (tested: 20 nM),30.3,no binding (tested: 500 nM),0.354,0.079,"anti-LRRC25 chimeric antibody 3C01 (antibody, human IgG4, V domains shown, also called ATCC PTA-126026) VH: EEKLEESGGGLVKPGGSLKLSCAVSGFTLSSYAMSWVRQTPEKRLEWVASISRGGNTYYPDSVKGRFTISRDNGRNILNLQMSSLRSEDTAIYYCTRGGGSTMITSLFAYWGQGTLVTVSA VL: DIVMTQDAPSVPVTPGESVSISCRSSKSLLHSNGNTYLYWFLQRPGQSPQLLIYRMSNLASGVPDRFSGSGSGTAFTLRISRVEAEDVGVYYCMQHLEYPFTFGSGTKLEIKR"
no binding (tested: 20 nM),no binding (tested: 20 nM),no binding (tested: 20 nM),no binding (tested: 20 nM),no binding (tested: 20 nM),no binding (tested: 20 nM),no binding (tested: 20 nM),no binding (tested: 20 nM),no binding (tested: 20 nM),no binding (tested: 20 nM),63,no binding (tested: 500 nM),0.324,0.156,"anti-LRRC25 chimeric antibody 3F04 (antibody, human IgG4) heavy: DVQLVESGGGLVKPGGSLKLSCAVSGFTLSSYAMSWVRQTPEKRLEWVASISRGGSTYYPDSVKGRFTISRDNGRNILNLQMSSLRSEDTAIYYCARGGGSTMITSLFAYWGQGTLVTVSAASTKGPSVFPLAPCSRSTSESTAALGCLVKDYFPEPVTVSWNSGALTSGVHTFPAVLQSSGLYSLSSVVTVPSSSLGTKTYTCNVDHKPSNTKVDKRVESKYGPPCPPCPAPEFLGGPSVFLFPPKPKDTLMISRTPEVTCVVVDVSQEDPEVQFNWYVDGVEVHNAKTKPREEQFNSTYRWSVLTVLHQDWLNGKEYKCKVSNKGLPSSIEKTISKAKGQPREPQVYTLPPSQEEMTKNQVSLTCLVKGFYPSDIAVEWESNGQPENNYKTTPPVLDSDGSFFLYSRLTVDKSRWQEGNVFSCSVMHEALHNHYTQKSLSLSLGK light: DIVMTQDAFSNPVTLGTSASISCRSSKSLLHSNGITYLYWYLQKPGQSPQLLIYQMSNLASGVPDRFSSSGSGTDFTLRISRVEAEDVGVYYCAQNLELPFTFGSGTKLEIKRTVAAPSVFIFPPSDEQLKSGTASVVCLLNNFYPREAKVQWKVDNALQSGNSQESVTEQDSKDSTYSLSSTLTLSKADYEKHKVYACEVTHQGLSSPVTKSFNRGEC"
no binding (tested: 20 nM),no binding (tested: 20 nM),no binding (tested: 20 nM),no binding (tested: 20 nM),no binding (tested: 20 nM),no binding (tested: 20 nM),no binding (tested: 20 nM),no binding (tested: 20 nM),no binding (tested: 20 nM),no binding (tested: 20 nM),3.2,no binding (tested: 500 nM),0.324,0.099,"anti-LRRC25 chimeric antibody 1G08 (antibody, human IgG4, V domains shown) VH: DVQLVESGGGLVKPGGSLKLSCAASGFTFSNYAMSWVRQTPEKRLEWVASISRGGNTYYPDSVKGRFTISRDNARNILYLQMSSLRSEDTAIYYCTRGNYGSSPFAYWGQGTLVTVSA VL: DIVLTQSPASLAVSLGQRATISCRASESVDSYGNSFMHWYQQKPGQPPKLLIYLASNLESGVPARFSGSGSRTDFTLTIDPVEADDAATYYCQQNNEDPWTFGGGTKLEIKR"
no binding (tested: 20 nM),no binding (tested: 20 nM),no binding (tested: 20 nM),no binding (tested: 20 nM),no binding (tested: 20 nM),no binding (tested: 20 nM),no binding (tested: 20 nM),no binding (tested: 20 nM),no binding (tested: 20 nM),no binding (tested: 20 nM),~100,no binding (tested: 500 nM),0.251,0.11,"anti-LRRC25 chimeric antibody 4A03 (antibody, human IgG4, V domains shown) VH: DVNLEVSGGGLVKPGGSLKLSCAASGFTFSRYAMSWVRQTPEKRLEWVASISRGGSTYYPDSVKGRFTISRDIARDILYLQMSSLRSEDTAMYYCARGNYGSSLFAYWGQGTLVTVSA VL: DIVMTQAAFSNPVTLGTSASISCRSSKSLLHSNGITYLYWYLQKPGQSPQLLIYQMSNLASGVPDRFSSSGSGTDFTLRISRVEAEDVGVYYCAQNLELPFTFGSGTKLEIKR"

# — patent US20220363752A1 (VERSEAU THERAPEUTICS, published 2022)
